Measured values reported in the supplement of paper PMC11908140.

B1: library; numbered along this chain (parent)
chain: MRKPRAAVGSGHRKQAASQEGRQKHAKNNSQAKPSACDGLARQPEEVVLQASVSSYHLFRDVAEVTAFRGSLLSWYDQEKRDLPWRRRAEDEMDLDRRAYAVWVSEVMLQQTQVATVINYYTGWMQKWPTLQDLASASLEEVNQLWAGLGYYSRGRRLQEGARKVVEELGGHMPRTAETLQQLLPGVGRYTAGAIASIAFGQATGVVDGNVARVLCRVRAIGADPSSTLVSQQLWGLAQQLVDPARPGDFNQAAMELGATVCTPQRPLCSQCPVESLCRARQRVEQEQLLASGSLSGSPDVEECAPNTGQCHLCLPPSEPWDQTLGVVNFPRKASRKPPREESSATCVLEQPGALGAQILLVQRPNSGLLAGLWEFPSVTWEPSEQLQRKALLQELQRWAGPLPATHLRHLGEVVHTFSHIKLTYQVYGLALEGQTPVTTVPPGARWLTQEEFHTAAVSTAMKKVFRVYQGQQPGTCMGSKRSQVSSPCSRKKPRMGQQVLDNFFRSHISTDAHSLNSAAQ

Variants of: B1
Test: 8OG:A repair function score (normalized; synonymous = 0, nonsense = -1) (normalized log-likelihood score); higher = more repair activity (WT-like)
Conditions: with 8OG:A DNA repair reporter (GFP) in HEK-293 MUTYH KO cells
Method: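 Saturation mutagenesis (NNN codon scan) of the MUTYH cDNA (521-aa nuclear isoform NM_001048174.1 / NP_001041639), stably expressed under doxycycline induction in HEK-293 MUTYH knockout cells. Cells were co-transfected with an 8OG:A-bearing GFP repair reporter plus mCherry and sorted 72 h later into GFP+ and GFP− bins, three replicates per tile. The Rosace log2 enrichment (GFP+ vs GFP−) was converted per tile to a normalized function score with synonymous variants centered at 0 and nonsense variants (codons 1-471) at -1; low-abundance variants were removed.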

8OG:A repair function score: each site, then its substitutions
A147: R -0.11, M -0.0248, K -0.229, I -0.125, S 0.0618, Q 0.00492, L -0.207, G -0.174, V -0.14, H -0.241, N -0.0408, T -0.154, Y -0.549, F -0.305, C -0.226, P -0.734, E -0.144, W -0.902, D -0.118
G148: K -0.475, Q -0.44, T -0.549, F -0.794, H -0.166, C -0.72, Y -0.677, E -0.792, N -0.669, L -1.31, A -0.564, V -1.08, W -1.48, D -0.544, I -1.27, S -0.286, R -0.782, M -1.1, P -1.1
V142: Y -0.971, W -0.941, T -0.532
L145: P -1.26, E -0.0292, W -0.0219, M 0.00629, A 0.0661, C 0.112, D 0.000565, Q 0.154, K 0.0459, T -0.001, I -0.102, N 0.0178, H 0.0825, G 0.0263, Y 0.0659, F 0.0113, S 0.0372, R -0.0437, V -0.0541
L149: V -0.906, W -1.46, P -0.979, F -0.43, S -0.335, H -1.82, Y -0.657, T -0.81, C -0.585, E -1.24, K -1.17, N -0.783, Q -1.06, G -0.743, R -0.729, M -0.664, A -0.323, I -0.462, D -1.19
G150: K -1.27, T -1.35, M -1.44, F -1.66, N -1.15, Y -0.803, H -1.12, C -0.982, L -1.18, R -1.3, A -1.42, I -1.78, S -1.26, W -1.09, Q -1.58, P -1.54, D -1.38, V -1.22, E -1.13
Q144: N -0.299, A -0.134, E -0.0907, K -7.85e-05, T -0.0237, V -0.0203, M 0.0906, L -0.000148, R 0.0872, H -0.0216, P -0.282, S 0.0476, G -0.106, F -0.198, W -0.282, I 0.051, Y -0.286, D -0.5, C -0.0295
Y151: L -0.0762, G -1.03, F -0.064, I -0.244, A -0.816, K -0.808, H -0.509, E -1.21, D -1, M -0.45, C -0.944, N -1.33
N143: W -0.253, P -0.4, G -0.139, K -0.343, T -0.286, I -0.0751, L -0.0917, H -0.621, M 0.113, A -0.35, Q -0.222, Y 0.0152, V -0.199, S -0.133, D -0.456, R -0.181, E -0.196, C -0.216, F -0.0267
W146: L -0.263, K -0.739, H -0.738, D -1.2, E -1.03, A -0.448, R -1.28, S -0.39, M -0.182, N -0.671, Q -0.345, G -0.399, F -0.152, C -0.255, I -0.138, Y -0.532, T -0.294, V -0.296, P -1.14
